Assay results published in publication PMC4297519 (Nature, 2014).

Target: the molecule itself
Test: crystal structure

B1: human CEACAM1 IgV domain (GST tag removed) (domain or fragment)
chain: QLTTESMPFNVAEGKEVLLLVHNLPQQLFGYSWYKGERVDGNRQIVGYAIGTQQATPGPANSGRETIYPNASLLIQNVTQNDTGFYTLQVIKSDLVNEEATGQFHVY
B1: binds.
